# Reference: US20200155655A1 (GACHON UNIVERSITY OF INDUSTRY ACADEMIC COOPERATION …, published 2020)
# B1: Vps34 (vacuolar protein sorting 34), endogenous in MEF cell lysate (enzyme, UniProt Q6PF93 1-887, looked up)
# chain: MGEAEKFHYIYSCDLDINVQLKIGSLEGKREQKSYKAVLEDPMLKFSGLYQETCSDLYVTCQVFAEGKPLALPVRTSYKAFSTRWNWNEWLKLPVKYPDLPRNAQVALTIWDVYGPGSAVPVGGTTVSLFGKYGMFRQGMHDLKVWPNVEADGSEPTRTPGRTSSTLSEDQMSRLAKLTKAHRQGHMVKVDWLDRLTFREIEMINESEKRSSNFMYLMVEFRCVKCDDKEYGIVYYEKDGDESSPILTSFELVKVPDPQMSMENLVESKHHKLARSLRSGPSDHDLKPNATTRDQLNIIVSYPPTKQLTYEEQDLVWKFRYYLTNQEKALTKFLKCVNWDLPQEAKQALELLGKWKPMDVEDSLELLSSHYTNPTVRRYAVARLRQADDEDLLMYLLQLVQALKYENFDDIKNGLEPTKKDSQTSASESLSNSGVSSGDIDSSQIITNPLPPVASPPPASKAKEVSDGENLEQDLCTFLISRACKNSTLANYLYWYVIVECEDQDTQQRDPKTHEMYLNVMRRFSQALLKGDKSVRVMRSLLAAQQTFVDRLVHLMKAVQRESGNRKKKNERLQALLGDNEKMNLSDVELIPLPLEPQVKIRGIIPETATLFKSALMPAQLFFKTEDGGKYPVIFKHGDDLRQDQLILQIISLMDKLLRKENLDLKLTPYKVLATSTKHGFMQFIQSVPVAEVLDTEGSIQNFFRKYAPSETGPYGISAEVMDTYVKSCAGYCVITYILGVGDRHLDNLLLTKTGKLFHIDFGYILGRDPKPLPPPMKLNKEMVEGMGGTQSEQYQEFRKQCYTAFLHLRRYSNLILNLFSLMVDANIPDIALEPDKTVKKVQDKFRLDLSDEEAVHYMQSLIDESVHALFAAVVEQIHKFAQYWRK
# notes: Endogenous protein from MEF cells; also called Vps34 immune complex
# B2: Atg14L, endogenous in MEF cell lysate (other, UniProt Q8CDJ3 1-492, looked up)
# chain: MASPSGKGSWTPEAPGFGPRALARDLVDSVDDAEGLYVAVERCPLCNTTRRRLTCAKCVQSGDFVYFDGRDRERFIDKKERLSQLKNKQEEFQKEVLKAMEGKRLTDQLRWKIMSCKMRIEQLKQTICKGNEEMKKNSEGLLKNKEKNQKLYSRAQRHQEKKEKIQRHNRKLGDLVEKKTIDLKSHYERLARLRRSHILELTSIIFPIDEVKTSGRDPADVSSETDSAMTSSMVSKLAEARRTTYLSGRWVCDDHNGDTSISITGPWISLPNNGDYSAYYNWVEEKKTTQGPDMEHNNPAYTISAALGYATQLVNIVSHILDINLPKKLCNSEFCGENLSKQKLTRAVRKLNANILYLCSSQHVNLDQLQPLHTLRNLMHLVSPRSEHLGRSGPFEVRADLEESMEFVDPGVAGESDASGDERVSDEETDLGTDWENLPSPRFCDIPSQPVEVSQSQSTQVSPPIASSSAGGMISSAAASVTSWFKAYTGHR
# notes: Endogenous protein; also called autophagic Vps34 complex
# Tests used:
# [1] = biological target: T1, leucyl-tRNA synthetase (LRS), endogenous in MEF cell lysate (UniProt Q8BMJ2 1-1178); experiment: co-immunoprecipitation from MEF cell lysate, Western blot
# T1 construct: Endogenous protein immunoprecipitated from MEF cells
# T1 sequence (Q8BMJ2 whole entry): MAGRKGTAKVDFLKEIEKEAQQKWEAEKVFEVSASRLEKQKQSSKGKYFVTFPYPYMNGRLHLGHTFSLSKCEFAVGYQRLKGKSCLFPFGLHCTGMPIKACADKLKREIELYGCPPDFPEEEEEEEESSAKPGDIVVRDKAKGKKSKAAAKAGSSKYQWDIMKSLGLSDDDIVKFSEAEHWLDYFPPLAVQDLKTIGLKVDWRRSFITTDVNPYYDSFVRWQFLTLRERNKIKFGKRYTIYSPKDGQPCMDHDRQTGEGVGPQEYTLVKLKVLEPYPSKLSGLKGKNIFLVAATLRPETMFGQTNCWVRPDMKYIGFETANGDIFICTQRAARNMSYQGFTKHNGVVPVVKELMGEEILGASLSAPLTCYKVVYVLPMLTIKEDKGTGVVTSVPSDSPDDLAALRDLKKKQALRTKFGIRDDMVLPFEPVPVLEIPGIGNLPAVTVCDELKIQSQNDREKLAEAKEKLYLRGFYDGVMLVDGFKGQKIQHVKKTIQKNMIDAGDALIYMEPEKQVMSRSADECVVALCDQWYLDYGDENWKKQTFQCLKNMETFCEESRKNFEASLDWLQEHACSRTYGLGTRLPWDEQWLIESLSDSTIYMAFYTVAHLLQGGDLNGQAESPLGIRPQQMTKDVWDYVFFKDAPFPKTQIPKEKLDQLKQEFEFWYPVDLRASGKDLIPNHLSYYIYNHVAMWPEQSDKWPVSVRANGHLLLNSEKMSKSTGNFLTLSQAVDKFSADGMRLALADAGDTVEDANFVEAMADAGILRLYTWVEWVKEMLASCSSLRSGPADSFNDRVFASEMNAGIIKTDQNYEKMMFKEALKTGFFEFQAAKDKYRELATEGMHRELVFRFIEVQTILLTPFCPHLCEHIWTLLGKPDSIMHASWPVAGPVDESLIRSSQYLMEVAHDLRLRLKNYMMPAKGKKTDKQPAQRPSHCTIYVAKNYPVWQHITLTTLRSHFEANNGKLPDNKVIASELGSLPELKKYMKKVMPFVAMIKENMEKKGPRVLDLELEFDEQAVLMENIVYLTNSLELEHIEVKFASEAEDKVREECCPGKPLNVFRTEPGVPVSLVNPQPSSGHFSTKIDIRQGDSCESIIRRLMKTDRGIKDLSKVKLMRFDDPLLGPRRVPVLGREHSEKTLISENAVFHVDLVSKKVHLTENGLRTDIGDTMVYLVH
# Protocol: Particularly, MEF cells stimulated by amino acids by the same manner as described in Example <1-1> were washed with cold PBS. At this time, MEF cells unstimulated with amino acids were used as the control. The cells were lysed in mild lysis buffer (MLB: 10 mM Tris (pH 7.5), 2 mM EDTA, 100 mM NaCl, […], 50 mM NaF, 1 mM Na₃VO₄ and protease inhibitor cocktail (Sigma)). On the other hand, for immunoprecipitation of LRS, the cells were lysed in MIPT buffer. Then, the lysate was microcentrifuged at 13,000×g for 10 minutes to collect supernatant. An antibody was added to the supernatant at 4° C., followed by immunoprecipitation. Reaction was induced in the presence of protein G-agarose or M2-beads (Sigma). The beads were washed with lysis buffer 3 to 5 times, followed by Western blotting according to the conventional method. Immunoprecipitation for Vps34 was performed with protein G-agarose beads, and immunoprecipitation for Flag-LRS was performed with M2-beads.
# [2] = biological target: T1, leucyl-tRNA synthetase (LRS), …; experiment: immunoprecipitation with Atg14L antibody from MEF cell lysate, Western blot
Binder,binding result [1],binding result [2]
B1,binds,
B2,,no binding
